In this test the target is VirE2-Venus (expressed in transgenic Arabidopsis roots) (Agrobacterium tumefaciens) (UniProt P0A3W8). The experiment in a line: co-IP.
UniProt P0A3W8, sequence (P0A3W8 whole entry, the tested form may be a part): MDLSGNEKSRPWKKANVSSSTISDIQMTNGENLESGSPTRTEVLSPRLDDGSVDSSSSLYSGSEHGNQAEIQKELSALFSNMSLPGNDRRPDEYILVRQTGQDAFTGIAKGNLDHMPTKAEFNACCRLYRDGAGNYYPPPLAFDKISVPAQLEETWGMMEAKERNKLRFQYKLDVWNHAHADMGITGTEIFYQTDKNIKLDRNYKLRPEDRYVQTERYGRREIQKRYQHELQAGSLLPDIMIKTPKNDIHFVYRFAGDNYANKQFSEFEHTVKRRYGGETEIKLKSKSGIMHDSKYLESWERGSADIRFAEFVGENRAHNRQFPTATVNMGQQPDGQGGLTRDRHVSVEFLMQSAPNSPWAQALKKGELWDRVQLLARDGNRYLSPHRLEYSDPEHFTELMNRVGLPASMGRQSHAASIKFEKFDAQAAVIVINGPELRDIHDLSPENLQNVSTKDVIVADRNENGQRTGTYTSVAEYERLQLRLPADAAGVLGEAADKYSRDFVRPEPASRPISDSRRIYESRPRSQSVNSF
As for “myc-tagged myosin XI-K cargo binding domain (transgenic Arabidopsis roots) (domain or fragment)”, the percent of the input co-immunoprecipitated (% of the input) turned out to be 4.
In turn, “myc-tagged myosin VIII-2 cargo binding domain (transgenic Arabidopsis roots) (domain or fragment)” displayed a percent of the input co-immunoprecipitated (% of the input) of 4.
The substance “myc-tagged myosin VIII-A cargo binding domain (transgenic Arabidopsis roots) (domain or fragment)” showed a percent of the input co-immunoprecipitated (% of the input) of 4.
“myc-tagged myosin VIII-B cargo binding domain (transgenic Arabidopsis roots) (domain or fragment)” had a percent of the input co-immunoprecipitated (% of the input) of 4.

Source of the values: article doi:10.1101/2023.03.06.531343.
